{
  "source": "patent US7393918B2",
  "about": "“Protein binding miniature proteins and uses thereof” (priority 2003, dated 2008)",
  "key": {"[1]": {"target": "Mena1-112 EVH1 domain (Mus musculus, UniProt Q03173)", "sequence (Q03173 1-112)": "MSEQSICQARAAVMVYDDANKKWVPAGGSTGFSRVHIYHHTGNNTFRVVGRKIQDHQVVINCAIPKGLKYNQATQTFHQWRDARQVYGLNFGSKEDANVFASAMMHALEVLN", "assay": "tryptophan fluorescence perturbation analysis of EVH1 domain binding", "conditions": "all EVH1 domains tested (Mena1-112, VASP1-115, Evl1-115)"}, "[2]": {"target": "Mena1-112 (Mus musculus, UniProt Q03173)", "sequence (Q03173 1-112)": "as above", "assay": "competition with pGolemi^Flu for binding to Mena1-112", "conditions": "read-out: IC50, competition with pGolemi^Flu for binding to Mena1-112"}, "[3]": {"test_system": "L. monocytogenes", "assay": "L. monocytogenes actin-based motility in Xenopus laevis egg cytoplasmic extracts", "parameters": "species or system Listeria monocytogenes", "protocol": "Errors bars show the intraquartile range.\nL. monocytogenes motility in mammalian cells and extracts is due to interactions between the 639-residue bacterial protein ActA and host proteins that recruit and activate actin polymerization. Addition of 10 μM ActA11 decreased the median speed of L. monocytogenes by 89%, consistent with previous work. […] Further experimentation will be required to fully understand the molecular events that result in altered motility."}},
  "data": [
    {"substance": "ActA11: 11 residue peptide comprising PPII repeat 2 of L. monocytogenes ActA; best previously known Mena ligand (DFPPPPTDEEL; ActA11, peptide comprising PPII repeat of ActA protein)", "values": [
      {"measurement": "Krel among EVH1 domains", "setting": "[1]", "result": "< 3"},
      {"measurement": "IC50", "setting": "[2]", "result": "4 ± 0.2", "unit": "µM"},
      {"measurement": "decrease of median speed of L. monocytogenes", "setting": "[3]; 10 μM", "result": 89, "unit": "%"},
      {"measurement": "discontinuous tail formation of L. monocytogenes", "setting": "[3]; any concentration tested", "result": "Discontinuous tails were not observed"}
    ]}
  ]
}
